± gives the standard deviation.

The series is described as follows: protein stability index of a GFP-peptide fusion (GPS, HEK-293T) (PSI 1-6); higher = more stable.
Where [1] appears, read: treatment: DMSO, c terminus: a fixed tail appended.
Setting [2] is: treatment: MLN4924 1 uM, 8 h, c terminus: a fixed tail appended.
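Also: 24-mer peptide tiles fused after GFP, lentivirally expressed, FACS-sorted into six equal bins by GFP/DsRed ratio, decoded by Illumina sequencing, PSI is the read-weighted mean bin number.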

For the sequence RILVGNRLHLAFKRQVPTEQARAY [RAB40C], the protein stability index runs as follows: under setting [1], 2.29 ± 0.26; under setting [2], 2.56 ± 0.27. For RKDHLKNHLQTHDPNKMAFGCEEC [PLAGL1] the same measures were 4.77 ± 0.16 and 4.93 ± 0.54. For RKNPYPTKGEKIMLAIITKMTLTQ [IRX6] the same measures were 2.61 ± 1 and 2.74 ± 0.62. With RKRMKMDKTCSKTKNKSKHALRKK [FAM9B], the protein stability index by setting is: under setting [1], 4.23 ± 0.45; under setting [2], 4.66 ± 0.3. For RLIRKMFSFKVSRWMGLACFRSLA [CCDC70] the same measures were 2.35 ± 0.46 and 2.29 ± 0.45. For RLREAAALGDIREVQKLVESGVDV [ANKRD40] the same measures were 4.28 ± 0.23 and 4.19 ± 0.077. For RMAIGYLHSHRHLYPEGIGARQQQ [POMT2] the same measures were 2.9 ± 0.22 and 3.08 ± 0.21. With RMLVAASWACAFTNALTHTVAMST [OR3A1], the protein stability index was determined as 3.07 ± 0.24 under setting [1] and 3.18 ± 0.5 under setting [2].

In the case of RNPVSLVVTRLVILGSGEEGPQVG [ADAMTS4], the protein stability index under setting [1] turned out to be 2.83 ± 0.2. As to RNYLNYGEEGAPGKWQQQGDLQDT [CHGB], the protein stability index is, setting by setting: under setting [1], 4.86 ± 0.14; under setting [2], 4.94 ± 0.39.

For RPELGAALGIYGAPYAAAAAAQSY [IRX6], the protein stability index under setting [1] was determined as 2.73 ± 0.12 and the protein stability index under setting [2] amounted to 2.92 ± 0.46. In the case of RPNRQLGSMVEIAKQLQAVKRKIR [TRIM39], the protein stability index under setting [1] worked out at 2.85 ± 0.43 and the protein stability index under setting [2] was found to be 3.03 ± 0.27. For RPRPQGRSVSEPRDQHPQPSLGDS [RTN2] the same measures were 5.04 ± 0.31 and 5.296 ± 0.046. In the case of RPTYTPPSIMPQKHWVYVKRGGNC [ZBTB22], the protein stability index turned out to be 2.78 ± 0.25 under setting [1] and 3.06 ± 0.32 under setting [2].

Turning to RQFEFSVDSFQIILDSLLFFYDCS [TENT5C], the protein stability index is, setting by setting: under setting [1], 3.06 ± 0.57; under setting [2], 3.04 ± 0.61. For RRGRHEQSPTSRPRKVSSLPPRSC [C22orf15] the same measures were 4.35 ± 0.066 and 4.61 ± 0.22. For RRVKLQLWDTSGQGRFCTIFRSYS [RAB40B] the same measures were 2.21 ± 0.57 and 2.08 ± 0.32. For RSKSGSEEVLCDSCIGNKQKAVKS [TRIM29] the same measures were 4.96 ± 0.31 and 5.19 ± 0.11. Consider RSLENYHFVDEHGKDQGINIRQKV [CLINT1], for which the protein stability index runs as follows: under setting [1], 3.77 ± 0.23; under setting [2], 3.75 ± 0.4. For RSVSLSMRKSGAMKKGGIFSAEFL [BNIP3L], the protein stability index runs as follows: under setting [1], 2.8 ± 0.3; under setting [2], 2.95 ± 0.34.

RTPEPLEEFPKREDQEGSPPETSL [MYBL2] showed a protein stability index under setting [1] of 5.4 ± 0.36 and a protein stability index under setting [2] of 5.56 ± 0.23. Regarding RTTPSRREITGVQAQPGEATSGPP [PALM], the protein stability index is, setting by setting: under setting [1], 5.25 ± 0.35; under setting [2], 5.2 ± 0.093. For RVKFRRQEANARERNRMHGLNDAL [NEUROD6] the same measures were 3.37 ± 0.18 and 3.43 ± 0.34. For RVTNVGSLLLTPQENESLFTFLGK [WASL] the same measures were 2.84 ± 0.27 and 3.19 ± 0.27. Turning to RWTFEKACHPFLLGPPLVRKRIHD [TOR1AIP2], the protein stability index is, setting by setting: under setting [1], 2.64 ± 0.18; under setting [2], 2.76 ± 0.33. For RYEPLPPSLPAAGEQDCCGERVVI [KCNA3] the same measures were 4.04 ± 0.16 and 4.08 ± 0.34. For SAAGPPLSEDDKLQGAASHVPEGF [EHMT1] the same measures were 5.31 ± 0.3 and 5.21 ± 0.11.

With SAHPVEVFSFDLHEPLSKERVEAF [TMEM175], the protein stability index by setting is: under setting [1], 3.82 ± 0.19; under setting [2], 3.82 ± 0.3. SALGPPPAASNSSDLFDLMGSSQA [CLINT1]: the protein stability index amounted to 4.7 ± 0.22 under setting [1] and 4.49 ± 0.2 under setting [2]. Sequence SALSDTEIQREIGISNALHRLKLR [PPFIA4] came in with a protein stability index under setting [1] of 4.2 ± 0.27 and a protein stability index under setting [2] of 4.17 ± 0.25.

Consider SDAANRNHEALRQAKQEMNESRRQ [PRPH], for which the protein stability index runs as follows: under setting [1], 5.2 ± 0.26; under setting [2], 4.96 ± 0.34. As to SDFLTLHSIIISLVEAGAHTDMTN [FEM1B], the protein stability index by setting is: under setting [1], 2.87 ± 0.43; under setting [2], 2.93 ± 0.54.

Consider SDLFDLMGSSQATMTSSQSMNFSM [CLINT1], for which the protein stability index was 2.42 ± 0.22 under setting [1] and 2.66 ± 0.24 under setting [2].

Consider SDSPDAADSTSFDVQLGDIILTAT [PPTC7], for which the protein stability index runs as follows: under setting [1], 3.98 ± 0.27; under setting [2], 4.01 ± 0.18. For SEAPNEKLFFVDTGSKEKGLTKKR [NOP53] the same measures were 4.98 ± 0.44 and 5.37 ± 0.15.

Take SEFLKRFVEATRKWKVGIPSDPLV [ALDH8A1]: the protein stability index runs as follows: under setting [1], 2.53 ± 0.85; under setting [2], 2.05 ± 0.2. For SEGELGGPSEPGGTHPEDHQGHSD [RHOBTB2] the same measures were 5.54 ± 0.32 and 5.49 ± 0.29. With SELPPPMERTGGIGDSRPPSFHPH [DVL3], the protein stability index came out at 4.55 ± 0.25 under setting [1] and 4.61 ± 0.09 under setting [2]. For SESMENINSGYETRRKKGKKDKDI [KMT2E] the same measures were 5.01 ± 0.33 and 5.39 ± 0.42.

On to SEVTELRRVLQGLEIELQSQLSMK [KRT16], for which the protein stability index is 2.33 ± 0.2 under setting [1] and 2.33 ± 0.31 under setting [2]. For SFAELFSFMLQDRAKGLLGTTVTF [FEM1C] the same measures were 2.79 ± 0.56 and 3.21 ± 0.84. For the sequence SFGLRFGKREAAPGNHGRSAGRG [KISS1], the protein stability index reads like this: (treatment: DMSO, c terminus: native) 3.23 ± 0.21; (treatment: MLN4924 1 uM, 8 h, c terminus: native) 2.64 ± 0.45. On to SGESGLRRRGSDPASGEVEASQLR [TMEM40], for which the protein stability index runs as follows: under setting [1], 5.56 ± 0.11; under setting [2], 5.51 ± 0.22. For SGPEEPLLEEEEKQWGPLEREPVR [RTN2] the same measures were 5.51 ± 0.21 and 5.47 ± 0.34. For SGSRHPPWARGCGMFTFLSSVTAA [SLC2A12] the same measures were 2.48 ± 0.43 and 2.38 ± 0.62. For SHQELHRELLMNHRRGLGVDSKPE [FAM107A] the same measures were 4.61 ± 0.22 and 4.57 ± 0.2. Regarding SIARLEMGPDEYEEMEEEEEEEEE [FBXO3], the protein stability index amounted to 5.41 ± 0.26 under setting [1] and 5.62 ± 0.28 under setting [2].

For SIFGICMVFSGLCPLLLGSVMAIE [PTGFR], the protein stability index turned out to be 3.36 ± 0.43 under setting [1] and 3.09 ± 0.84 under setting [2].

Consider SISASSARFVSSGSGGGYGGGMRV [KRT15], for which the protein stability index by setting is: under setting [1], 3.02 ± 0.22; under setting [2], 3.55 ± 0.23. For SISELKHALSGHAKVKPFDPKITC [TPH1] the same measures were 2.77 ± 0.45 and 2.93 ± 0.37.

SIWAQNQVENWSAFAPDFKELDEN [RBBP5] came in with a protein stability index under setting [1] of 4.26 ± 0.26 and a protein stability index under setting [2] of 4.23 ± 0.23.

The sequence SKFKKLMKQGGAALEGSALANGRA [DLX1] yielded a protein stability index under setting [1] of 3.78 ± 0.34 and a protein stability index under setting [2] of 4 ± 0.26.

Consider SKLVESGIQFMDEPEMAVFLQNAK [TRIM55], for which the protein stability index is, setting by setting: under setting [1], 3.71 ± 0.34; under setting [2], 4.01 ± 0.21. For SLAYCLACGGGHLLPYFYIIYMAI [DHCR7] the same measures were 2.6 ± 0.64 and 2.45 ± 0.31. For SLEQANRSLQLRIQELELQAQIHG [TFE3] the same measures were 3.51 ± 0.33 and 3.52 ± 0.19.

Take SLERGTALFAQVQRGALPAPDPEL [RSAD1]: the protein stability index runs as follows: under setting [1], 4.18 ± 0.45; under setting [2], 4.41 ± 0.38. For SLLAGTADGSLRMDDPKGDFITLY [M1AP] the same measures were 2.51 ± 0.22 and 2.44 ± 0.52.

Regarding SLNLSTEFISSTKRPYAKELETVD [SERPINB5], the protein stability index under setting [1] was determined as 3.69 ± 0.14 and the protein stability index under setting [2] worked out at 3.82 ± 0.21.

For the sequence SLNPDGYEKAYEGGSELGGWSLGR [CPXM2], under setting [2], the protein stability index turned out to be 4.29 ± 0.39. Take SLSDLEIQASAGVISKKAKVKVPQ [ZNF75A]: the protein stability index by setting is: under setting [1], 4.44 ± 0.21; under setting [2], 4.55 ± 0.14.

In turn, SLVIGALLASLTGGVLIDRYGRRT [SLC2A12] returned a protein stability index under setting [1] of 2.89 ± 0.45 and a protein stability index under setting [2] of 3.03 ± 0.42.

The sequence SMWTRPQIKDFKEKIQQDADSVIT [ACBD3] gave a protein stability index under setting [1] of 3.88 ± 0.2 and a protein stability index under setting [2] of 4.08 ± 0.42. For SNMCINNTLVCNGLQNCVYPWDEN [NETO1] the same measures were 3.29 ± 0.082 and 3.36 ± 0.44. For SNYIFVAIFWIVFLLLIVFYTAIT [P2RY14] the same measures were 2.26 ± 0.26 and 2.1 ± 0.41. For SPEALSLGEVAYHDYHGILVDEEE [ADD1] the same measures were 5.58 ± 0.27 and 5.54 ± 0.13. On to SPQFEGPLSPPPINYNGIFSLKQE [NEUROD6], for which the protein stability index was 3.96 ± 0.11 under setting [1] and 4.05 ± 0.17 under setting [2].

SPSPMDPHMAEQTFEQAIQAASRI [CDC25B] had a protein stability index under setting [1] of 4.68 ± 0.16 and a protein stability index under setting [2] of 4.56 ± 0.25.

The sequence SPSTLIGSLRTLELGSESQGASES [HDAC6] came in with a protein stability index under setting [1] of 5.08 ± 0.29 and a protein stability index under setting [2] of 4.92 ± 0.33.

Take SQFHSVRPQGPQLRQQQHKQNKQV [DNAJC4]: the protein stability index is, setting by setting: under setting [1], 4.85 ± 0.12; under setting [2], 4.87 ± 0.13.

Consider SQGAISEGAQRDRFPGRKQPGVHE [C22orf31], for which the protein stability index is 5.05 ± 0.095 under setting [1] and 5.1 ± 0.18 under setting [2].

Consider SQGQWGRAWEVDWFSLASVIFLLL [DHCR7], for which the protein stability index amounted to 2.68 ± 0.033 under setting [1] and 2.39 ± 0.48 under setting [2]. For SQQQPLRNQVVSSTNGELNVDDPT [CSNK1G1] the same measures were 5.36 ± 0.24 and 5.27 ± 0.2.

Source of the values: the supplement of paper PMC10567573.
